Reference: publication PMC9482650, “Quantitative fragmentomics allow affinity mapping of interactomes” (Nature Communications, 2022)

T1: DVL3, Q92997
T1 sequence (Q92997 244-331, limits assumed, looked up): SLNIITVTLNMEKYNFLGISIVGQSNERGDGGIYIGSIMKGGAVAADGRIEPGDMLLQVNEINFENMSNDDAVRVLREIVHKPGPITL

T2: LIN7C, Q9NUP9
T2 sequence (Q9NUP9 88-185, limits assumed, looked up): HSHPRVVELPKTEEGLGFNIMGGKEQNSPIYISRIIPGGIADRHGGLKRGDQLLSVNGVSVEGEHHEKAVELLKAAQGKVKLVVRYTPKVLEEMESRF

T3: HTRA3, P83110
T3 sequence (P83110 354-453, limits assumed, looked up): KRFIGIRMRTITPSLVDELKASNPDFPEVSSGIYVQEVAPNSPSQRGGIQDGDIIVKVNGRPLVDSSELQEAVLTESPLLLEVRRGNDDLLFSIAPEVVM

T4: APBA1_2, Q02410
T4 sequence (Q02410 742-832, limits assumed, looked up): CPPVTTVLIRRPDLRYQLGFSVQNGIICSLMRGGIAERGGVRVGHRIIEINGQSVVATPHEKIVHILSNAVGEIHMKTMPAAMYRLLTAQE

T5: GRIP1_4, Q9Y3R0
T5 sequence (Q9Y3R0 467-571, limits assumed, looked up): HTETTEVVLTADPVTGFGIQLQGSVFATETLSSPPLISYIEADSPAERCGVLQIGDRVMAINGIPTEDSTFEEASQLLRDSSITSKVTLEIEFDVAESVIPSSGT

T6: APBA2_2, Q99767
T6 sequence (Q99767 654-744, limits assumed, looked up): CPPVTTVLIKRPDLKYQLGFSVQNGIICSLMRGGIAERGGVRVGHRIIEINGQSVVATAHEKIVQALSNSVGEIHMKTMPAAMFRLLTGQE

T7: APBA1_1, Q02410
T7 sequence (Q02410 651-752, limits assumed, looked up): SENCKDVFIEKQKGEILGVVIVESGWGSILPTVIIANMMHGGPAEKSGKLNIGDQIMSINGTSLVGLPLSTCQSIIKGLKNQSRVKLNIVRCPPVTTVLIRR

T8: SNTA1, Q13424
T8 sequence (Q13424 82-180, limits assumed, looked up): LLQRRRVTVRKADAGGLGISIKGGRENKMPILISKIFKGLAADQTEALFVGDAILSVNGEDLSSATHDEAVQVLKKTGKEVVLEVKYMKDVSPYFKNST

T9: LNX2_3, Q8N448
T9 sequence (Q8N448 463-564, limits assumed, looked up): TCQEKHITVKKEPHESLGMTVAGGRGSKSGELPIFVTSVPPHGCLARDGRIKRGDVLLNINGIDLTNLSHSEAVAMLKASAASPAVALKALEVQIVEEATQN

T10: LNX2_2, Q8N448
T10 sequence (Q8N448 334-432, limits assumed, looked up): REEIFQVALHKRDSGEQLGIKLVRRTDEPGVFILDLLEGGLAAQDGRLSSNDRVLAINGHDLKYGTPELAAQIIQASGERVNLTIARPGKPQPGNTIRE

T11: NHERF3_3, Q5T2W1
T11 sequence (Q5T2W1 238-333, limits assumed, looked up): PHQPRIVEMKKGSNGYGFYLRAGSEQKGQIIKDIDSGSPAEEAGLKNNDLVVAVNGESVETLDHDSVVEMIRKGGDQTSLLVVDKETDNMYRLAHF

T12: APBA2_1, Q99767
T12 sequence (Q99767 563-664, limits assumed, looked up): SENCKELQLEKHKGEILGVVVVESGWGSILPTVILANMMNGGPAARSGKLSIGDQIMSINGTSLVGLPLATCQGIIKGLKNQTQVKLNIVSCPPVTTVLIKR

T13: MPDZ_10, O75970
T13 sequence (O75970 1624-1722, limits assumed, looked up): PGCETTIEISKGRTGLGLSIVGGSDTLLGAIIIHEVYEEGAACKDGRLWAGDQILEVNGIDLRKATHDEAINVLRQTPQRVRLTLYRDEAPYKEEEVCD


Tests used:
Test in all cases: holdup assay
Design in all cases: key: below the threshold = too weak to quantify, mostly under pKd 3.1 to 4
Conditions in all cases: plain residues with an end cap or a label only (N-terminal biotin on a linker: ado-ado)
[1] = target: T1, DVL3, Q92997
[2] = target: SCRIB_1, Q14160
SCRIB_1, Q14160, sequence (Q14160 718-814): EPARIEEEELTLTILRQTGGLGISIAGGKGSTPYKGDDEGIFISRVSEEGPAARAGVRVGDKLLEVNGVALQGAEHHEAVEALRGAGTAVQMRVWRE

[3] = target: LNX1_2, Q8TBB1
LNX1_2, Q8TBB1, sequence (Q8TBB1 371-470): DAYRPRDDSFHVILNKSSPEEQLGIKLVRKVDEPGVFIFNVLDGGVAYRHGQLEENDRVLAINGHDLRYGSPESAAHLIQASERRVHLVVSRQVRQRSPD

[4] = target: Inadl_4, Q8NI35
Inadl_4, Q8NI35, sequence (Q8NI35 547-651): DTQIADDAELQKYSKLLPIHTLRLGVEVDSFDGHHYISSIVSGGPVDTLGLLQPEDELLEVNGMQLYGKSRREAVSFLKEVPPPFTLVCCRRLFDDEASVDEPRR

[5] = target: GRID2IP_1, A4D2P6
GRID2IP_1, A4D2P6, sequence (A4D2P6 1-87): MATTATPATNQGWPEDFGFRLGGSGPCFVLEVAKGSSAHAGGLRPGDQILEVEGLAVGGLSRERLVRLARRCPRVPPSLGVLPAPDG

[6] = target: T2, LIN7C, Q9NUP9
[7] = target: T3, HTRA3, P83110
[8] = target: FRMPD2_3, Q68DX3
FRMPD2_3, Q68DX3, sequence (Q68DX3 1073-1166): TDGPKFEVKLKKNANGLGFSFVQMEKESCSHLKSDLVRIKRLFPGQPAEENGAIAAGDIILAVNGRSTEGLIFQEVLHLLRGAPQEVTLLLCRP

[9] = target: MAGI2_2, Q86UL8
MAGI2_2, Q86UL8, sequence (Q86UL8 410-522): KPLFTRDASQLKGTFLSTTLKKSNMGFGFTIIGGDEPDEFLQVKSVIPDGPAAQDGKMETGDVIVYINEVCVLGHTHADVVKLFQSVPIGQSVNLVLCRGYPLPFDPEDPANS

[10] = target: PDLIM1, O00151
PDLIM1, O00151, sequence (O00151 1-87): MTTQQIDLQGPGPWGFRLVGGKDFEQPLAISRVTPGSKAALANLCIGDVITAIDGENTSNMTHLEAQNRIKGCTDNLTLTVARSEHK

[11] = target: NHERF4_2, Q86UT5
NHERF4_2, Q86UT5, sequence (Q86UT5 220-308): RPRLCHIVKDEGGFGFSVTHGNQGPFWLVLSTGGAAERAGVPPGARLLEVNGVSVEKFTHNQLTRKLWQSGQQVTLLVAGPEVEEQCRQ

[12] = target: T4, APBA1_2, Q02410
[13] = target: T5, GRIP1_4, Q9Y3R0
[14] = target: T6, APBA2_2, Q99767
[15] = target: NHERF4_4, Q86UT5
NHERF4_4, Q86UT5, sequence (Q86UT5 464-550): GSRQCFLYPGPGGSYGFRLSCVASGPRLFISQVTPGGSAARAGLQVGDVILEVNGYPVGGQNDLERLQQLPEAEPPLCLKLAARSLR

[16] = target: GRIP2_4, Q9C0E4
GRIP2_4, Q9C0E4, sequence (Q9C0E4 446-548): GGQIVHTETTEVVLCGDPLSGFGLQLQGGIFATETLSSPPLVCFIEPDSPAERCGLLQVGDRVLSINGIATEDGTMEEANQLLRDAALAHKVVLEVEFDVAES

[17] = target: T7, APBA1_1, Q02410
[18] = target: T8, SNTA1, Q13424
[19] = target: T9, LNX2_3, Q8N448
[20] = target: T10, LNX2_2, Q8N448
[21] = target: T11, NHERF3_3, Q5T2W1
[22] = target: DLG4_1, P78352
DLG4_1, P78352, sequence (P78352 62-152): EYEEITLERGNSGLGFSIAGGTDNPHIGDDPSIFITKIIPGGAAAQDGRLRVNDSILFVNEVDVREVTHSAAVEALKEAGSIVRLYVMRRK

[23] = target: LNX1_3, Q8TBB1
LNX1_3, Q8TBB1, sequence (Q8TBB1 500-596): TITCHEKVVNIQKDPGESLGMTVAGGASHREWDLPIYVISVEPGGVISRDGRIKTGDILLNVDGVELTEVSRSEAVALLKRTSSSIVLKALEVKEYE

[24] = target: T12, APBA2_1, Q99767
[25] = target: T13, MPDZ_10, O75970

| pKd [1] | pKd [2] | pKd [3] | pKd [4] | pKd [5] | pKd [8] | pKd [9] | pKd [10] | pKd [11] | pKd [12] | pKd [13] | pKd [14] | pKd [15] | pKd [16] | pKd [17] | pKd [18] | pKd [19] | pKd [20] | pKd [21] | pKd [22] | Binder | further results |
| --- | --- | --- | --- | --- | --- | --- | --- | --- | --- | --- | --- | --- | --- | --- | --- | --- | --- | --- | --- | --- | --- |
| below the threshold | below the threshold | below the threshold | below the threshold | below the threshold | below the threshold | below the threshold | below the threshold | below the threshold | below the threshold | below the threshold | below the threshold | 3.78 | below the threshold | below the threshold | below the threshold | below the threshold | 3.48 | below the threshold | below the threshold | GDHLDRRVVL [VAC14, Q08AM6] | pKd [25]: 3.51; pKd [6]: 4.04; pKd [7]: below the threshold; pKd [23]: below the threshold; pKd [24]: below the threshold |
| below the threshold | below the threshold | below the threshold | below the threshold | below the threshold | below the threshold | below the threshold | below the threshold | below the threshold | 3.82 | below the threshold | below the threshold | below the threshold | below the threshold | below the threshold | below the threshold | below the threshold | below the threshold | below the threshold | below the threshold | LRYARPADAL [PPP1R3G, B7ZBB8] | pKd [25]: below the threshold; pKd [6]: below the threshold; pKd [7]: below the threshold; pKd [23]: below the threshold; pKd [24]: below the threshold |

The remaining lines, values behind:

| Binder | pKd [1] | pKd [2] | pKd [3] | pKd [4] | pKd [5] | pKd [8] | pKd [9] | pKd [10] | pKd [11] | pKd [12] | pKd [13] | pKd [14] | pKd [15] | pKd [16] | pKd [17] | pKd [18] | pKd [19] | pKd [20] | pKd [21] | pKd [22] | further results |
| --- | --- | --- | --- | --- | --- | --- | --- | --- | --- | --- | --- | --- | --- | --- | --- | --- | --- | --- | --- | --- | --- |
| EYRKDNKVAA [LSM14A, Q8ND56;Q8ND56-2] | below the threshold | below the threshold | below the threshold | below the threshold | below the threshold | below the threshold | below the threshold | below the threshold | below the threshold | below the threshold | below the threshold | below the threshold | below the threshold | below the threshold | below the threshold | below the threshold | below the threshold | below the threshold | below the threshold | below the threshold | pKd [6]: below the threshold; pKd [7]: below the threshold; pKd [23]: below the threshold; pKd [24]: below the threshold |
| KSTTRSSSSC [NDE1, Q9NXR1;Q9NXR1-2] | below the threshold | below the threshold | below the threshold | below the threshold | below the threshold | below the threshold | below the threshold | below the threshold | below the threshold | below the threshold | below the threshold | below the threshold | below the threshold | below the threshold | below the threshold | below the threshold | below the threshold | below the threshold | below the threshold | below the threshold | pKd [25]: below the threshold; pKd [23]: below the threshold; pKd [24]: below the threshold |
| SKSLERATQL [COMMD3, Q9UBI1] | 3.58 | 3.83 | below the threshold | below the threshold | below the threshold | 3.49 | 3.71 | below the threshold | below the threshold | 4.16 | below the threshold | below the threshold | below the threshold | below the threshold | below the threshold | 4.06 | below the threshold | 3.56 | 3.8 | below the threshold | pKd [25]: below the threshold; pKd [6]: below the threshold; pKd [7]: below the threshold; pKd [23]: below the threshold; pKd [24]: below the threshold |
